The source of these data is US20180030151A1 (MOGAM INSTITUTE FOR BIOMEDICAL RESEARCH, published 2018).

Common to all, as to assay: cell-based or functional assay
Experiment [1] deals with T1, recombinant human TFPI (tissue factor pathway inhibitor) (human, UniProt P10646 29-304).
For experiment [2], the target named is T1, recombinant human TFPI (tissue factor …). The source holds these as a separate data set.
Experiment [3] shares this target. The source holds these as a separate data set.
The target is the same in experiment [4]. The source holds these as a separate data set.
Experiment [5] has the same target. This is another data set of the same source.
The target is the same in experiment [6]. The source holds these as a separate data set.
The target is the same in experiment [7]. The source holds these as a separate data set.
Experiment [8] has the same target. The source holds these as a separate data set.

Where two headings read alike, the source gives them in different places.

B1: clone 8 (antibody, V domains shown)
VH: EVQLVESGGGLVKPGGSLRLSCAASGFTFSSYAMNWVRQAPGKGLEWVSTITTGGSYTYYADSVEGRFTISRDNAKNSLYLQMNSLRAEDTAVYYCARQDGNFLMDYWGQGTLVTVSS
VL: DVVMTQTPLSLPVTLGQPASISCKSSPSLLDVDGKTYLNWLQQRPGQSPKRLIYLVSKLDSGVPDRFTGSGSGTDFTLKISRVEAEDVGVYYCWQGTHFPFTFGQGTKVEIKR
As for B1, in experiment [1], the “FXa assay % of FXa alone, 2.5 nM Ab, 10 nM TFPI” value is 7.1%; the “FXa assay % of FXa alone, 5 nM Ab, 10 nM TFPI” value came out at 33.8%; the “FXa assay OD, 2.5 nM Ab, 10 nM TFPI” value came to 0.054; the “FXa assay OD, 5 nM Ab, 10 nM TFPI” value is 0.258. Also, in experiment [1], the “FXa assay OD, 10 nM Ab, 10 nM TFPI” value worked out at 0.527 and the “FXa assay OD, 20 nM Ab, 10 nM TFPI” value came out at 0.61. Besides, in experiment [2], the “% of Normalized, TF/FVIIa/FX complex assay (FX 5 nM), Ab 1.56 nM” value is 5.1%; the “% of Normalized, TF/FVIIa/FX complex assay (FX 5 nM), Ab 3.13 nM” value was determined as 6.1%; the “% of Normalized, TF/FVIIa/FX complex assay (FX 5 nM), Ab 6.25 nM” value worked out at 6.4%; the “% of Normalized, TF/FVIIa/FX complex assay (FX 5 nM), Ab 12.5 nM” value came out at 10.8%. In experiment [2], the “% of Normalized, TF/FVIIa/FX complex assay (FX 5 nM), Ab 25 nM” value was 48.3%; the “% of Normalized, TF/FVIIa/FX complex assay (FX 5 nM), Ab 50 nM” value is 83.2%; the “% of Normalized, TF/FVIIa/FX complex assay (FX 5 nM), Ab 100 nM” value amounted to 103%. For the same molecule, in experiment [3], the “effect of inhibiting TFPI, FXa activity assay, Ab 10 nM” value (“effect of inhibiting TFPI … Ab 10 nM” below) was around 69% and the “effect of inhibiting TFPI, FXa activity assay, Ab 20 nM” value (from here on “effect of inhibiting TFPI … Ab 20 nM”) was around 80%. For the same molecule, in experiment [4], the “FXa assay % of FXa alone, 2.5 nM Ab, 10 nM TFPI” value stood at 7.4%; the “FXa assay % of FXa alone, 5 nM Ab, 10 nM TFPI” value was determined as 31%; the “FXa assay % of FXa alone, 10 nM Ab, 10 nM TFPI” value turned out to be 70.5%; the “FXa assay % of FXa alone, 20 nM Ab, 10 nM TFPI” value amounted to 77.5%. For the same molecule, in experiment [4], the “FXa assay OD, 2.5 nM Ab, 10 nM TFPI” value came to 0.0615; the “FXa assay OD, 5 nM Ab, 10 nM TFPI” value was determined as 0.256; the “FXa assay OD, 10 nM Ab, 10 nM TFPI” value was 0.583; the “FXa assay OD, 20 nM Ab, 10 nM TFPI” value was 0.64. Further, in experiment [5], the “A405, TF/FVIIa/FX complex assay (FX 5 nM), Ab 1.56 nM” value was 0.041; the “A405, TF/FVIIa/FX complex assay (FX 5 nM), Ab 3.13 nM” value turned out to be 0.05; the “A405, TF/FVIIa/FX complex assay (FX 5 nM), Ab 6.25 nM” value came to 0.052; the “A405, TF/FVIIa/FX complex assay (FX 5 nM), Ab 12.5 nM” value turned out to be 0.088. In experiment [5], the “A405, TF/FVIIa/FX complex assay (FX 5 nM), Ab 25 nM” value came to 0.391; the “A405, TF/FVIIa/FX complex assay (FX 5 nM), Ab 50 nM” value turned out to be 0.673; the “A405, TF/FVIIa/FX complex assay (FX 5 nM), Ab 100 nM” value came to 0.834.

B2: clone 16 (antibody, V domains shown)
VH: EVQLVESGGGLVKPGGSLRLSCAASGFTFSHYAMTWVRQAPGKGLEWVSTITTGGSHTYYADSVEGRFTISRDNAKNSLYLQMNSLRAEDTAVYYCARQDGNFLMDYWGQGTLVTVSS
VL: DVVMTQTPLSLPVTLGQPASISCKSSPSLLDIDGKTYLNWLQQRPGQSPKRLIYLVSKLDSGVPDRFTGSGSGTDFTLKISRVEAEDVGVYYCWQGTHFPFTFGQGTKVEIKR
Take B2: in experiment [3], the “effect of inhibiting TFPI … Ab 10 nM” value is around 34% and the “effect of inhibiting TFPI … Ab 20 nM” value was around 55%. Besides, in experiment [6], the “FXa assay % of FXa alone, 2.5 nM Ab, 10 nM TFPI” value came to 7.3%; the “FXa assay % of FXa alone, 5 nM Ab, 10 nM TFPI” value came out at 10.2%; the “FXa assay OD, 2.5 nM Ab, 10 nM TFPI” value came out at 0.0865; the “FXa assay OD, 5 nM Ab, 10 nM TFPI” value came out at 0.122. For the same molecule, in experiment [6], the “FXa assay OD, 10 nM Ab, 10 nM TFPI” value is 0.405 and the “FXa assay OD, 20 nM Ab, 10 nM TFPI” value was 0.651.

B3: clone 23 (antibody, V domains shown)
VH: EVQLVESGGGLVKPGGSLRLSCAASGFTFSHYAMNWVRQAPGKGLEWVSTITTGGSYTYYADSVEGRFTISRDNAKNSLYLQMNSLRAEDTAVYYCARQDGHFLMDYWGQGTLVTVSS
VL: DVVMTQTPLSLPVTLGQPASISCKSSPSLLDIDGKTYLNWLQQRPGQSPKRLIYLVSKLDSGVPDRFTGSGSGTDFTLKISRVEAEDVGVYYCWQGTHLPFTFGQGTKVEIKR
B3: in experiment [6], the “FXa assay % of FXa alone, 2.5 nM Ab, 10 nM TFPI” value is 6.9%; the “FXa assay % of FXa alone, 5 nM Ab, 10 nM TFPI” value amounted to 7.4%; the “FXa assay % of FXa alone, 10 nM Ab, 10 nM TFPI” value amounted to 10.4%; the “FXa assay % of FXa alone, 20 nM Ab, 10 nM TFPI” value was determined as 62.5%. In experiment [6], the “FXa assay OD, 2.5 nM Ab, 10 nM TFPI” value came to 0.082; the “FXa assay OD, 10 nM Ab, 10 nM TFPI” value worked out at 0.124; the “FXa assay OD, 20 nM Ab, 10 nM TFPI” value was 0.745.

B4: clone 13 (antibody, V domains shown)
VH: EVQLVESGGGLVKPGGSLRLSCAASGFTFSSYAMNWVRQAPGKGLEWVGTITTGGSHTYYADSVEGRFTISRDNAKNSLYLQMNSLRAEDTAVYYCARQDGNFLMDYWGQGTLVTVSS
VL: DVVMTQTPLSLPVTLGQPASISCKSSPSLLDIDGKTYLNWLQQRPGQSPKRLIYLVSKLDSGVPDRFTGSGSGTDFTLKISRVEAEDVGVYYCWQGTHFPFTFGQGTKVEIKR
As for B4, in experiment [7], the “% of Normalized, TF/FVIIa/FX complex assay, Ab 1.56 nM” value was 5.4%; the “% of Normalized, TF/FVIIa/FX complex assay, Ab 3.13 nM” value was found to be 6.4%; the “% of Normalized, TF/FVIIa/FX complex assay, Ab 6.25 nM” value turned out to be 8.8%; the “% of Normalized, TF/FVIIa/FX complex assay, Ab 12.5 nM” value came out at 11.9%. Besides, in experiment [7], the “% of Normalized, TF/FVIIa/FX complex assay, Ab 25 nM” value was determined as 62.2%; the “% of Normalized, TF/FVIIa/FX complex assay, Ab 50 nM” value worked out at 96.5%; the “% of Normalized, TF/FVIIa/FX complex assay, Ab 100 nM” value is 101%. Further, in experiment [3], the “effect of inhibiting TFPI … Ab 10 nM” value is around 76% and the “effect of inhibiting TFPI … Ab 20 nM” value is around 85%. Also, in experiment [4], the “FXa assay % of FXa alone, 2.5 nM Ab, 10 nM TFPI” value was determined as 7.8%; the “FXa assay % of FXa alone, 5 nM Ab, 10 nM TFPI” value is 44.8%; the “FXa assay OD, 2.5 nM Ab, 10 nM TFPI” value was 0.0645; the “FXa assay OD, 5 nM Ab, 10 nM TFPI” value amounted to 0.37. In experiment [4], the “FXa assay OD, 10 nM Ab, 10 nM TFPI” value is 0.624 and the “FXa assay OD, 20 nM Ab, 10 nM TFPI” value amounted to 0.706. In experiment [8], the “A405, TF/FVIIa/FX complex assay, Ab 1.56 nM” value came out at 0.046; the “A405, TF/FVIIa/FX complex assay, Ab 3.13 nM” value is 0.054; the “A405, TF/FVIIa/FX complex assay, Ab 6.25 nM” value came to 0.075; the “A405, TF/FVIIa/FX complex assay, Ab 12.5 nM” value is 0.101. Also, in experiment [8], the “A405, TF/FVIIa/FX complex assay, Ab 25 nM” value is 0.528; the “A405, TF/FVIIa/FX complex assay, Ab 50 nM” value was 0.818; the “A405, TF/FVIIa/FX complex assay, Ab 100 nM” value came out at 0.859.

B5: clone 21 (antibody, V domains shown)
VH: EVQLVESGGGLVKPGGSLRLSCAASGFTFSSYAMNWVRQAPGKGLEWVSTITKGGSYTYYADSVDGRFTISRDNAKNSLYLQMNSLRAEDTAVYYCARQDGNFLMDYWGQGTLVTVSS
VL: DVVMTQTPLSLPVTLGQPASISCKSSPSLLDSDGKTYLNWLQQRPGQSPKRLIYLVSKLDSGVPDRFTGSGSGTDFTLKISRVEAEDVGVYYCWQGTHFPFTFGQGTKVEIKR
For B5, in experiment [6], the “FXa assay % of FXa alone, 2.5 nM Ab, 10 nM TFPI” value is 5.9%; the “FXa assay % of FXa alone, 5 nM Ab, 10 nM TFPI” value amounted to 6%; the “FXa assay % of FXa alone, 10 nM Ab, 10 nM TFPI” value is 6.5%; the “FXa assay % of FXa alone, 20 nM Ab, 10 nM TFPI” value was 7.2%.
